Measured values reported in the supplement of paper PMC11246515.
± gives the standard deviation of the averaged measurements.

Assay: total protein half-life in vivo (active degradation + dilution); higher = more stable protein
[1] = E. coli NCM3722 delta-clpP, growth: N-lim chemostat, doubling time 6 h
[2] = E. coli NCM3722 delta-smpB, growth: N-lim chemostat, doubling time 6 h
[3] = wild type E. coli NCM3722, growth: C-lim chemostat, doubling time 3 h
[4] = wild type E. coli NCM3722, growth: C-lim chemostat, doubling time 6 h
[5] = wild type E. coli NCM3722, growth: C-lim chemostat, doubling time 12 h
[6] = E. coli NCM3722 delta-clpP delta-lon delta-hslV, growth: N-lim chemostat, doubling time 6 h
[7] = E. coli NCM3722 delta-hslV, growth: N-lim chemostat, doubling time 6 h
[8] = E. coli NCM3722 delta-lon, growth: N-lim chemostat, doubling time 6 h
[9] = wild type E. coli NCM3722, growth: N-lim chemostat, doubling time 6 h
[10] = wild type E. coli NCM3722, growth: N-lim chemostat, doubling time 12 h
[11] = wild type E. coli NCM3722, growth: P-lim chemostat, doubling time 6 h
[12] = wild type E. coli NCM3722, growth: P-lim chemostat, doubling time 12 h

Sequence | total protein half-life in vivo [1] [h] | total protein half-life in vivo [2] [h] | total protein half-life in vivo [3] [h] | total protein half-life in vivo [4] [h] | total protein half-life in vivo [5] [h] | total protein half-life in vivo [6] [h] | total protein half-life in vivo [7] [h] | total protein half-life in vivo [8] [h] | total protein half-life in vivo [9] [h] | total protein half-life in vivo [10] [h] | total protein half-life in vivo [11] [h] | total protein half-life in vivo [12] [h]
MQYKDENGVNEPSRRRLLKVIGALALAGSCPVAHAQKTQSAPGTLSPDARNEKQPFYGEHQAGILTPQQAAMMLVAFDVLASDKADLERLFRLLTQRFAFLTQGGAAPETPNPRLPPLDSGILGGYIAPDNLTITLSVGHSLFDERFGLAPQMPKKLQKMTRFPNDSLDAALCHGDVLLQICANTQDTVIHALRDIIKHTPDLLSVRWKREGFISDHAARSKGKETPINLLGFKDGTANPDSQNDKLMQKVVWVTADQQEPAWTIGGSYQAVRLIQFRVEFWDRTPLKEQQTIFGRDKQTGAPLGMQHEHDVPDYASDPEGKVIALDSHIRLANPRTAESESSLMLRRGYSYSLGVTNSGQLDMGLLFVCYQHDLEKGFLTVQKRLNGEALEEYVKPIGGGYFFALPGVKDANDYFGSALLRV | 5.58 | 5.85 | 2.17 ± 0.16 | 4.4 | 7.71 |  |  |  |  |  |  | 
MQYNPLGKTDLRVSRLCLGCMTFGEPDRGNHAWTLPEESSRPIIKRALEGGINFFDTANSYSDGSSEEIVGRALRDFARREDVVVATKVFHRVGDLPEGLSRAQILRSIDDSLRRLGMDYVDILQIHRWDYNTPIEETLEALNDVVKAGKARYIGASSMHASQFAQALELQKQHGWAQFVSMQDHYNLIYREEEREMLPLCYQEGVAVIPWSPLARGRLTRPWGETTARLVSDEVGKNLYKESDENDAQIAERLTGVSEELGATRAQVALAWLLSKPGIAAPIIGTSREEQLDELLNAVDITLKPEQIAELETPYKPHPVVGFK | 4.47 ± 0.65 | 3.79 ± 0.081 | 2.81 ± 0.13 | 5.04 ± 0.076 | 9.04 ± 0.38 | 4.533 ± 0.045 | 4.55 ± 0.91 | 5 ± 0.2 | 4.21 ± 0.2 | 6.51 ± 0.4 | 4.28 ± 0.23 | 8.83 ± 0.12
MREAFICDGIRTPIGRYGGALSSVRADDLAAIPLRELLVRNPRLDAECIDDVILGCANQAGEDNRNVARMATLLAGLPQSVSGTTINRLCGSGLDALGFAARAIKAGDGDLLIAGGVESMSRAPFVMGKAASAFSRQAEMFDTTIGWRFVNPLMAQQFGTDSMPETAENVAELLKISREDQDSFALRSQQRTAKAQSSGILAEEIVPVVLKNKKGVVTEIQHDEHLRPETTLEQLRGLKAPFRANGVITAGNASGVNDGAAALIIASEQMAAAQGLTPRARIVAMATAGVEPRLMGLGPVPATRRVLERAGLSIHDMDVIELNEAFAAQALGVLRELGLPDDAPHVNPNGGAIALGHPLGMSGARLALAASHELHRRNGRYALCTMCIGVGQGIAMILERV [P0C7L2] |  |  | 2.77 ± 0.17 | 3.37 ± 0.079 | 4.76 ± 0.58 | 3.42 |  | 2.17 |  |  | 4.99 ± 1.1 | 8.63 ± 0.14
MRFAIVVTGPAYGTQQASSAFQFAQALIADGHELSSVFFYREGVYNANQLTSPASDEFDLVRAWQQLNAQHGVALNICVAAALRRGVVDETEAGRLGLASSNLQQGFTLSGLGALAEASLTCDRVVQF | 4.58 | 3.44 |  |  |  | 5.11 |  |  | 4.52 |  | 6.11 | > 16
MRFIIRTVMLIALVWIGLLLSGYGVLIGSKENAAGLGLQCTYLTARGTSTVQYLHTKSGFLGITDCPLLRKSNIVVDNG [Q2MB16] | 6.25 | 6.03 ± 1.1 |  |  | 14 ± 1.4 | 7.32 ± 0.77 |  |  | 5.45 |  |  | 14 ± 2.2
MRFYRPLGRISALTFDLDDTLYDNRPVILRTEREALTFVQNYHPALRSFQNEDLQRLRQAVREAEPEIYHDVTRWRFRSIEQAMLDAGLSAEEASAGAHAAMINFAKWRSRIDVPQQTHDTLKQLAKKWPLVAITNGNAQPELFGLGDYFEFVLRAGPHGRSKPFSDMYFLAAEKLNVPIGEILHVGDDLTTDVGGAIRSGMQACWIRPENGDLMQTWDSRLLPHLEISRLASLTSLI [P0ADP0] | 4.56 ± 0.69 | 3.76 ± 0.16 |  | 5.75 ± 0.33 | 10.1 ± 1.4 | 5.24 ± 0.7 | 3.79 ± 0.05 | 4.87 ± 0.35 | 3.83 ± 0.34 | 6.7 | 5.87 ± 0.57 | 11.6 ± 0.078
MRGEFYQQLTNDLETARAEGLFKEERIITSAQQADITVADGSHVINFCANNYLGLANHPDLIAAAKAGMDSHGFGMASVRFICGTQDSHKELEQKLAAFLGMEDAILYSSCFDANGGLFETLLGAEDAIISDALNHASIIDGVRLCKAKRYRYANNDMQELEARLKEAREAGARHVLIATDGVFSMDGVIANLKGVCDLADKYDALVMVDDSHAVGFVGENGRGSHEYCDVMGRVDIITGTLGKALGGASGGYTAARKEVVEWLRQRSRPYLFSNSLAPAIVAASIKVLEMVEAGSELRDRLWANARQFREQMSAAGFTLAGADHAIIPVMLGDAVVAQKFARELQKEGIYVTGFFYPVVPKGQARIRTQMSAAHTPEQITRAVEAFTRIGKQLGVIA [P0AB77] | 4.59 ± 0.16 | 4.39 ± 0.082 | 3.46 ± 0.59 | 5.66 ± 0.2 |  | 5.66 ± 1.2 | 4.78 ± 0.57 | 4.56 ± 0.44 | 4.55 ± 0.25 | 6.84 ± 0.5 | 6.03 ± 0.29 | 11.11 ± 0.03
